In one data set the target is RNase A (UniProt P61823). As to the kind of experiment: cell-based or functional assay.
In data set [1] the target is T1, Murine RNase Inhibitor (New England Biolabs, Ipswich, MA), Q91VI7.
T1 chain: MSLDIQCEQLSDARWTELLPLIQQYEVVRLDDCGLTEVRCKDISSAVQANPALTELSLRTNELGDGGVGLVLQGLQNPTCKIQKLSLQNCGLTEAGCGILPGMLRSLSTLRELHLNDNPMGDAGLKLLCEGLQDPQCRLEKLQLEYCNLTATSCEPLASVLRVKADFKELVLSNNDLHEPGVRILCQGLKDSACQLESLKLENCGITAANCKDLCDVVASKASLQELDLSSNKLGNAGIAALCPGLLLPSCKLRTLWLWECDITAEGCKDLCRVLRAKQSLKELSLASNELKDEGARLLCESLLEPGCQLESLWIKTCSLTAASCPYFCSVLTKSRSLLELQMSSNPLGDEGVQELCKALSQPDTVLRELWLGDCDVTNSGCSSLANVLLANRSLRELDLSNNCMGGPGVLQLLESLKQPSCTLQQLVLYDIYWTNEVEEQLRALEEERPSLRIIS

As to “SUPERase-In (ThermoFisher Scientific, Waltham, MA)”, in the data set with RNase A, the inhibition of RNA degradation (gel), reaction at 60° C. is under 50%.

B1: RNase A (protein)
chain: KETAAAKFERQHMDSSTSAASSSNYCNQMMKSRNLTKDRCKPVNTFVHESLADVQAVCSQKNVACKNGQTNCYQSYSTMSITDCRETGSSKYPNCAYKTTQANKHIIVACEGNPYVPVHFDASV
On to B1, for which the “RNA digestion (fluorescence of RNaseAlert RNA substrate, 37° C., 90 minutes)” value in data set [1] was “Three RNase A aptamers and Murine RNase Inhibitor are able to inhibit RNA digestion, but Murine Inhibitor show a slows a loss in RNase inhibition over time”.
